The values that follow come from patent publication US20230194547A1.

The target of experiment [1] is human FcRn beta-2-microglobulin complex, biotinylated, coupled to streptavidin Sepharose (human) (UniProt P55899). Description: FcRn affinity chromatography, pH gradient 5.5 to 8.8; unlabelled antibody.
The target is the same in experiment [2]. Description: FcRn affinity chromatography, pH gradient 5.5 to 8.8; dye-labelled antibody.

Chain of human FcRn beta-2-microglobulin complex, biotinylated, coupled to streptavidin Sepharose (human) (P55899 24-297 limits assumed, chain 1 of 2): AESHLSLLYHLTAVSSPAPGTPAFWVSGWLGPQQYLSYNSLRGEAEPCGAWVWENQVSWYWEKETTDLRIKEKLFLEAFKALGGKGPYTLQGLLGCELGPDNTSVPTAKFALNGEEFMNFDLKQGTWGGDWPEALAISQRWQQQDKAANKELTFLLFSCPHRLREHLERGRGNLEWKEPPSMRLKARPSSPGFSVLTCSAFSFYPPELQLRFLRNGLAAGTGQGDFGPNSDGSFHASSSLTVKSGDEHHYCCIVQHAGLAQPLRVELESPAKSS
Chain of human FcRn beta-2-microglobulin complex, biotinylated, coupled to streptavidin Sepharose (human) (P61769 21-119 limits assumed, chain 2 of 2, further chain): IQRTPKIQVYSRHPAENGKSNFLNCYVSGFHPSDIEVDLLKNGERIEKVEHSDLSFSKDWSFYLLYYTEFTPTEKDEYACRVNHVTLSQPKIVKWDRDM
Chain of Avelumab (antibody) (HC): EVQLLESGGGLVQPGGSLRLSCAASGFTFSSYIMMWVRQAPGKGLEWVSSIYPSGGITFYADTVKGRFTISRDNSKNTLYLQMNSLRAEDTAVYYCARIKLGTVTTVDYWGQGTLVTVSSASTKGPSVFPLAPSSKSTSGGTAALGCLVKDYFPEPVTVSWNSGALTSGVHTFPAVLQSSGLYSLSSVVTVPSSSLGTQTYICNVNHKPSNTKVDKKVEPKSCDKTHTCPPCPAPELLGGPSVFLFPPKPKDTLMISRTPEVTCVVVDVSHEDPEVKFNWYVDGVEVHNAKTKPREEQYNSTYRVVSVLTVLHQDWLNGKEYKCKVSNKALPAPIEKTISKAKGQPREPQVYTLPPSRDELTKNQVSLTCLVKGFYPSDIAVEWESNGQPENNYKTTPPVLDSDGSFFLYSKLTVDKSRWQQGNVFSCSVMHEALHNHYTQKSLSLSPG
Chain of Avelumab (antibody) (LC): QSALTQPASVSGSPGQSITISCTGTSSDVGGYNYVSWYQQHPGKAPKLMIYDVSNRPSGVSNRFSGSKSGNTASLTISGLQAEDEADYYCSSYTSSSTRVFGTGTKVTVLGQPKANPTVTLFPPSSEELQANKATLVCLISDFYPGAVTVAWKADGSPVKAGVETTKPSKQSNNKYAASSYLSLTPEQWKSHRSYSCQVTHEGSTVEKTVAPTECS
Chain of Ixekizumab, labelled with pHAb dye (antibody) (HC): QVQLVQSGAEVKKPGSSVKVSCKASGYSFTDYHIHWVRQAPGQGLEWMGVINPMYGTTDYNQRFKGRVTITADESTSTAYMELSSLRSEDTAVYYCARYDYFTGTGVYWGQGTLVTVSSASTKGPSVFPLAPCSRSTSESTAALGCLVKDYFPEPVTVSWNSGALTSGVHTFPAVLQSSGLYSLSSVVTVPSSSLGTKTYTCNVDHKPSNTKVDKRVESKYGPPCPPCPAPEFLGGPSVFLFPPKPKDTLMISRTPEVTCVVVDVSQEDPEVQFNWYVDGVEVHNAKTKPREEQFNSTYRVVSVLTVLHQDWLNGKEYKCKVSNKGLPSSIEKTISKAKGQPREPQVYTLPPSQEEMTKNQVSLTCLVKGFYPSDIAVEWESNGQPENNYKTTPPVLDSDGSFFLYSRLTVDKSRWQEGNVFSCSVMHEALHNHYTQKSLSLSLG
Chain of Ixekizumab, labelled with pHAb dye (antibody) (LC): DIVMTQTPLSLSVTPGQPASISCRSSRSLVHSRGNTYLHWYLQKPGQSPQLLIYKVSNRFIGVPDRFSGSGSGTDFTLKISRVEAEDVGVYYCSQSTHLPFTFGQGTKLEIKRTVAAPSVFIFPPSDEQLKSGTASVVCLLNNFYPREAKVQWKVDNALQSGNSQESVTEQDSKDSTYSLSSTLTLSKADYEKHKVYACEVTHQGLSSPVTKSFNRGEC
Chain of Ustekinumab, labelled with pHAb dye (antibody) (HC): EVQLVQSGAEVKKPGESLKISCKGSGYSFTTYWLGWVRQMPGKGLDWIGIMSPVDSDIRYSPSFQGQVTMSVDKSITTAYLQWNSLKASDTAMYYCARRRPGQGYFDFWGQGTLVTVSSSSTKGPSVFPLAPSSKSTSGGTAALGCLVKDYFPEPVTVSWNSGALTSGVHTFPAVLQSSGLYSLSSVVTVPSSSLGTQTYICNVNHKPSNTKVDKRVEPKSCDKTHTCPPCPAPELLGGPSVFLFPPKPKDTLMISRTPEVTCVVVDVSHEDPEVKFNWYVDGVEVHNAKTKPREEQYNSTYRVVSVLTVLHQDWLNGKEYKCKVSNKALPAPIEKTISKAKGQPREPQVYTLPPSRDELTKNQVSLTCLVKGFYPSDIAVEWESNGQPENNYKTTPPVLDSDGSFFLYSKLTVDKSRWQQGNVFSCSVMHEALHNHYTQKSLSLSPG
Chain of Ustekinumab, labelled with pHAb dye (antibody) (LC): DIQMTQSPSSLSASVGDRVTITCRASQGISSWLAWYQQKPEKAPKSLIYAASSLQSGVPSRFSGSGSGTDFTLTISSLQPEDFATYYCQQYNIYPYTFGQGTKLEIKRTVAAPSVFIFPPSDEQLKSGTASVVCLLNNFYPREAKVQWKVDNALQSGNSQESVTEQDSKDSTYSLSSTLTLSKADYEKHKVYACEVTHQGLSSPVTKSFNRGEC

Adalimumab (antibody) came in with a relative retention time on FcRn affinity column (relative to anti-Her3 antibody standard) in experiment [1] of 0.93. Turning to “Adalimumab, labelled with pHAb dye (antibody)”, the relative retention time on FcRn affinity column (relative to anti-Her3 antibody standard) in experiment [2] is 0.84. Substance Avelumab (antibody) showed a relative retention time on FcRn affinity column (relative to anti-Her3 antibody standard) in experiment [1] of 1.27. In experiment [2], “Avelumab, labelled with pHAb dye (antibody)” gave a relative retention time on FcRn affinity column (relative to anti-Her3 antibody standard) of 1.25. Still for that read-out and setting: the figure for “Ixekizumab, labelled with pHAb dye (antibody)” is 1.33. Motavizumab WT (antibody) returned a relative retention time on FcRn affinity column (relative to anti-Her3 antibody standard) in experiment [1] of 0.5. Regarding “Motavizumab WT, labelled with pHAb dye (antibody)”, in experiment [2], the relative retention time on FcRn affinity column (relative to anti-Her3 antibody standard) is 0.42. With Motavizumab-YTE (antibody), in experiment [1], the relative retention time on FcRn affinity column (relative to anti-Her3 antibody standard) was found to be 4.52. As to “Motavizumab-YTE, labelled with pHAb dye (antibody)”, the relative retention time on FcRn affinity column (relative to anti-Her3 antibody standard) in experiment [2] is 4.88. Nivolumab (antibody): the relative retention time on FcRn affinity column (relative to anti-Her3 antibody standard) in experiment [1] is 0.49. Turning to “Nivolumab, labelled with pHAb dye (antibody)”, in experiment [2], the relative retention time on FcRn affinity column (relative to anti-Her3 antibody standard) stood at 0.39. Regarding Ofatumumab (antibody), the relative retention time on FcRn affinity column (relative to anti-Her3 antibody standard) in experiment [1] was 0.72.

Substance “Ofatumumab, labelled with pHAb dye (antibody)” yielded a relative retention time on FcRn affinity column (relative to anti-Her3 antibody standard) in experiment [2] of 0.67. The substance Palivizumab (antibody) had a relative retention time on FcRn affinity column (relative to anti-Her3 antibody standard) in experiment [1] of 0.31. Take “Palivizumab, labelled with pHAb dye (antibody)”: the relative retention time on FcRn affinity column (relative to anti-Her3 antibody standard) in experiment [2] worked out at 0.28. Reslizumab (antibody): in experiment [1], the relative retention time on FcRn affinity column (relative to anti-Her3 antibody standard) was found to be 0.5. “Reslizumab, labelled with pHAb dye (antibody)” returned a relative retention time on FcRn affinity column (relative to anti-Her3 antibody standard) in experiment [2] of 0.41.

For Ustekinumab (antibody), in experiment [1], the relative retention time on FcRn affinity column (relative to anti-Her3 antibody standard) worked out at 0.48. In turn, “Ustekinumab, labelled with pHAb dye (antibody)” had a relative retention time on FcRn affinity column (relative to anti-Her3 antibody standard) in experiment [2] of 0.41.
